Assay [1] has as its target T1, pH4.0-treated TTR (human, UniProt P02766 21-147). The assay can be described thus: ELISA, pH4-TTR captured by anti-His.
In assay [2] the target is T1, pH4.0-treated TTR. As to the kind of experiment: summary of Table 4; ELISA on pH4-TTR. For orientation: In an ELISA, binding on a coated surface is turned into a signal by an enzyme label.
The target of assay [3] is TTR-V122I (fibrils and oligomeric aggregates) (UniProt P02766 21-147). The assay can be described thus: cell-based or functional assay.
In assay [4] the target is T2, pH4.0-treated TTR (human, UniProt P02766 21-147). As to the kind of experiment: ELISA, pH4-TTR captured by anti-His. This is another data set of the same source.
In assay [5] the target is T2, pH4.0-treated TTR. As to the kind of experiment: summary of Table 4; ELISA on pH4-TTR. This is another data set of the same source.

The term Kd denotes the constant that tells how readily two partners part at equilibrium. High values mean weaker binding, low ones tighter binding.

B1: mouse monoclonal antibody 6C1 (antibody, V domains shown)
VH: EVQLVESGGGLVQPGGSLKLSCAASGFTFSNYYMSWVRQTPEKRLEWVAYISIDGNNIYHPDSVKGRFTISRDNAKNTLYLQMSSLKSEDTAMYYCARDSDYGYFDVWGTGTTVTVSS
VL: DVLMTQTPLSLPVSLGDQASISCRSSQSIVHSNGNTYLEWYLQKRGQSPKLLIYKVSKRFSGVPDRFSGSGSGTDFILKISRVEAEDLGVYYCFQGSHVPLTFGGGTKLELK
notes: also called m6C1; mis-TTR mAb 6C1
Take B1: the values for the Kd in assay [1] and in assay [2] were 16 nM and 14.5 nM, respectively.

B2: mouse monoclonal antibody 14G8 (antibody, V domains shown)
VH: EVKLVESGGGLVQPGGSLKLSCAASGFTFSSYTMSWVRQTPEKRLELVAEINNSGDTTYYPDTVKGRFTISRDNAKNTLYLQMSSLKSEDTAMYYCARHYYYGGGYGGWFFDVWGTGTTVTVSS
VL: DIVMTQAAPSVPVTPGESVSISCRSNKSLLHSNGNTYLYWFLQRPGQSPQLLIYRVSNLASGVPDRFSGSGSGTAFTLRISRVEAEDVGVYYCMQHLEYPLTFGAGTKLELKR
As for B2, the “IC50 of inhibition of TTR-V122I fibrillation (ThT fluorescence)” value in assay [3] turned out to be 28 µg/mL.

B3: mouse monoclonal antibody 9D5 (antibody, V domains shown)
VH: EVKLVESGGGLVQPGGSLKLSCAASGFTFSSYTMSWVRQTPEKRLELVAEISNSGDTTYYPDTVKGRFTFSRDNAKNTLYLQMSSLKSEDTAMYYCARHYYYGGGYGGWFFDVWGTGTTVTVSS
VL: DIVMTQAAPSVPVTPGESVSISCRSSKSLLHSNGNTYLYWFLQRPGQSPQLLIYRVSNLASGVPDRFSGSGSGTAFTLRISRVEAEDVGVYYCMQHLEYPLTFGAGTKLELK
Turning to B3, the Kd came to 282 nM in assay [4] and 257 nM in assay [5].

Values taken from patent WO2018007923A2 (dated 2018).
